# In IntAct's records for PubMed 22228096:
# Target: dnm1l_human DNM1L (UniProt O00429)
# Sequence (O00429 whole entry): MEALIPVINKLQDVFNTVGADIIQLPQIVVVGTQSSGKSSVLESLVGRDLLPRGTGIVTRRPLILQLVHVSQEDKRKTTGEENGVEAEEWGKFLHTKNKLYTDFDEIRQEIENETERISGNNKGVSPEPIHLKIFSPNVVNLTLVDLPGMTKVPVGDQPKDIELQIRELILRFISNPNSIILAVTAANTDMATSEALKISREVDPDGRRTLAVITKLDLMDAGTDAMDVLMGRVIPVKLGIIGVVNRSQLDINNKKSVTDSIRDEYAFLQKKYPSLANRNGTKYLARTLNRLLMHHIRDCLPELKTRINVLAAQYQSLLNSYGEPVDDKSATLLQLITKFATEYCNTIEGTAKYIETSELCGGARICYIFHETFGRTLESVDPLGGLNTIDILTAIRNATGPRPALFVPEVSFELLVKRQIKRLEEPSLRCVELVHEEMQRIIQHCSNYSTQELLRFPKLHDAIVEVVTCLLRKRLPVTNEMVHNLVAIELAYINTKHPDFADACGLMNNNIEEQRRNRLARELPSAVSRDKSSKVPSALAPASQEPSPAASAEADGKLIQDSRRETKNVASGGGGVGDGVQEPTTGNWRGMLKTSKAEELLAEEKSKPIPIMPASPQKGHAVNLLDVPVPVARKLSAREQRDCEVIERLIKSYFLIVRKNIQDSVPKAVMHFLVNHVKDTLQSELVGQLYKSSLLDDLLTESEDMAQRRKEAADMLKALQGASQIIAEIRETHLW
row,Substance,effect of a mutation on the interaction
1,"Leucine-rich repeat serine/threonine-protein kinase 2 (Homo sapiens), Q5S007 D1994A",decreasing interaction
2,"Leucine-rich repeat serine/threonine-protein kinase 2 (Homo sapiens), Q5S007 K1347A",decreasing interaction
3,"Leucine-rich repeat serine/threonine-protein kinase 2 (Homo sapiens), Q5S007 G2019S",increasing interaction
4,"Leucine-rich repeat serine/threonine-protein kinase 2 (Homo sapiens), Q5S007 R1441C",increasing interaction
